This passage reports Kd and dH results from article PMC7086394 (Bioconjugate Chemistry, 2020).

The assay concerns the target T1, K3GW (acetylated N-terminus).
T1 peptide: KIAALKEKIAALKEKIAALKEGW
Put plainly: ITC. In general terms: ITC needs no label: the signal is the heat of the interaction.

As usually defined, the Kd is the free concentration of one partner at which half of the binding sites on the other are occupied at equilibrium, for simple one-to-one binding. Low values mean a tighter complex, high ones a looser complex.

Where no end group is shown, it is not given here.

The molecule Ac-EIAALEKEIAALEKEIAALEKGY [E3GY] had a Kd of 73 nM and a dH of -18.4 kcal/mol.
